The values below are quoted from earlier work in publication PMC6191488.

The Kd is the equilibrium constant for the complex coming apart.

The target in the series is IgE Fc (Homo sapiens) (UniProt P01854).
UniProt P01854, sequence (P01854 104-427): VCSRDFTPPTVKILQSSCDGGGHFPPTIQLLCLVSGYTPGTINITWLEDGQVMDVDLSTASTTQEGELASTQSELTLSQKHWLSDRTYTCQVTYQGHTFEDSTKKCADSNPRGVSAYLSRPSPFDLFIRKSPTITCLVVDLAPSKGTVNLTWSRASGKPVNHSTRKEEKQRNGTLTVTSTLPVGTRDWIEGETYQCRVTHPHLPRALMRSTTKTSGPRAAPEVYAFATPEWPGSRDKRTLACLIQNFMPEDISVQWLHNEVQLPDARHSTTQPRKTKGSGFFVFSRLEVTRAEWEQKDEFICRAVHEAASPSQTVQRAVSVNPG

For “FcεRI alpha chain ECD (from UniProt P12319)”, the Kd is 0.37 nM.
